Experimental data from patent publication US20030096272A1, “Genes regulated by peroxisome proliferator-activated receptor gamma agonist” (Incyte Genomics, Inc., priority 2001, published 2003).

B1: 5425777 (nucleic acid, listed as Homo sapiens)
DNA: CCCAGACACAAGTCTTCACTCCTTCCTGCGAGCCCTGAGGAAGCCTTCTTTCCCCAGACATGGCCAACAAGGGTCCTTCCTATGGCATGAGCCGCGAAGTGCAGTCCAAAATCGAGAAGAAGTATGACGAGGAGCTGGAGGAGCGGCTGGTGGAGTGGATCATAGTGCAGTGTGGCCCTGATGTGGGCCGCCCAGACCGTGGGCGCTTGGGCTTCCAGGTCTGGCTGAAGAATGGCGTGATTCTGAGCAAGCTGGTGAACAGCCTGTACCCTGATGGCTCCAAGCCGGTGAAGGTGCCCGAGAACCCACCCTCCATGGTCTTCAAGCAGATGGAGCAGGTGGCTCAGTTCCTGAAGGCGGCTGAGGACTATGGGGTCATCAAGACTGACATGTTCCAGACTGTTGACCTCTTTGAAGGCAAAGACATGGCAGCAGTGCAGAGGACCCTGATGGCTTTGGGCAGCTTGGCAGTGACCAAGAATGATGGGCACTACCGTGGAGATCCCAACTGGTTTATGAAGAAAGCGCAGGAGCATAAGAGGGAATTCACAGAGAGCCAGCTGCAGGAGGGAAAGCATGTCATTGGCCTTCAGATGGGCAGCAACAGAGGGGCCTCCCAGGCCGGCATGACAGGCTACGGACGACCTCGGCAGATCATCAGTTAGAGCGGAGAGGGCTAGCCCTGAGCCCGGCCCTCCCCCAGCTCCTTGGCTGCAGCCATCCCGCTTAGCCTGCCTCACCCACACCCGTGTGGTACCTTCAGCCCTGGCCAAGCTTTGAGGCTCTGTCACTGAGCAATGGTAACTGCACCTGGGCAGCTCCTCCCTGTGCCCCCAGCCTCAGCCCAACTTCTTACCCGAAAGCATCACTGCCTTGGGCCCCTCCCTCCCGGCTGCCCCCATCACCTCTACTGTCTCCTCCCTGGGCTAAGCAGGGGAGAAGCGGGCTGGGGGTAGCCTGGATGTGGGCCAAGTCCACTGTCCTCCTTGGCGGCAAAAGCCCATTGAAGAAGAACCAGCCCAGCCTGCCCCCTATCTTGTCCTGGAATATTTTTGGGGTTGGAACTCAAAAAAAAAAAAGGGGGGGCCCGCGCGTTTATTGTGCCTTCTTCAGACCCCGGGAATTAATTCCCGACCGGATACCTTGGCAGCTATATTGAATCTTGCAACCGTTTAACTTACCATTTTTTGCCTCAGCCCGGTGTTTCTGGCTTGTTTGGGAAGCCGGTTGGTCCTCTTTGGTGTTCCGTTCCACGCGAAAAGGTTTAGACAGACTTCCGGAACACTTCCGGGTTCCCCAGACACCAGCTTCTTTGTTAGGGTCCCCACCGGTCATTGTCGCCCGGATCGCTTGGTCCACCGGCGCGGTTAACGTTTTTTCAGCCGGGCGATGTCA
modifications: Incyte ID No 5425777CA2

What was measured:
[1] = test system: adipocytes obtained from obese donors; assay: microarray differential expression in PPARγ agonist-treated adipocytes, obese donor; format: cell-based, human
From the text: (§1) Incyte clones represent template sequences derived from the LIFESEQ GOLD assembled human sequence database (Incyte Genomics). In cases where more than one clone was available for a particular template, the 5′-most clone in the template was used on the microarray. The HUMAN GENOME GEM series 1-5 microarrays (Incyte Genomics) contain 45,320 array elements which represent 22,632 annotated clusters and 22,688 unannotated clusters. For the UNIGEM series microarrays (Incyte Genomics), Incyte clones were mapped to non-redundant Unigene clusters (Unigene database (build 46), NCBI; Shuler (1997) J Mol Med 75:694-698), and the 5′ clone with the strongest BLAST alignment (at least 90% identity and 100 bp overlap) was chosen, verified, and used in the construction of the microarray. The UNIGEM V 2.0 microarray (Incyte Genomics) contains 8,502 array elements which represent 8,372 annotated genes and 130 unannotated clusters.
(§2) To construct microarrays, cDNAs were amplified from bacterial cells using primers complementary to vector sequences flanking the cDNA insert. Thirty cycles of PCR increased the initial quantity of cDNAs from 1-2 ng to a final quantity greater than 5 μg. Amplified cDNAs were then purified using SEPHACRYL-400 columns (APB). Purified cDNAs were immobilized on polymer-coated glass slides. Glass microscope slides (Coming, Corning N.Y.) were cleaned by ultrasound in 0.1% SDS and acetone, with extensive distilled water washes between and after treatments. Glass slides were etched in 4% hydrofluoric acid (VWR Scientific Products, West Chester Pa.), washed thoroughly in distilled water, and coated with 0.05% aminopropyl silane (Sigma-Aldrich) in 95% ethanol. Coated slides were cured in a 110° C. oven. cDNAs were applied to the coated glass substrate using a procedure described in U.S. Pat. No. 5,807,522. One microliter of the cDNA at an average concentration of 100 ng/ul was loaded into the open capillary printing element by a high-speed robotic apparatus which then deposited about 5 nl of cDNA per slide.
(§3) Microarrays were UV-crosslinked using a STRATALINKER UV-crosslinker (Stratagene), and then washed at room temperature once in 0.2% SDS and three times in distilled water. Non-specific binding sites were blocked by incubation of microarrays in 0.2% casein in phosphate buffered saline (Tropix, Bedford Mass.) for 30 minutes at 60° C. followed by washes in 0.2% SDS and distilled water as before.
(§4) Primary cultures of preadipocytes were obtained from subcutaneous fat obtained from a person with a body mass index (BMI; kg/m^2) of 23.59 and from a person with a BMI of 32.47. Individuals with a BMI between 18.5 and 24.9 are classified as ‘healthy’ or normal, whereas individuals with a BMI between 30.0 and 39.9 are classified as obese. Preadipocytes were cultured in F-10 medium with 10% fetal bovine serum. Confluent cells were either treated with 1 μM rosiglitazone (BRL49653), 0.2 mM IBMX, and 100 nM human insulin for 3 days; or remained untreated. Thereafter, the cells were cultured in F-10 medium with 3% fetal bovine serum and 100 nM human insulin. Differentiated adipocytes were compared to untreated preadipocytes maintained in culture in the absence of inducing agents. Between 80% and 90% of the preadipocytes observed under a phase contrast microscope had differentiated to adipocytes by day 15. Cells were harvested at 1, 2, 8, and 15 days post treatment.
(§5) Cells were harvested and lysed in 1 ml of TRIZOL reagent (5×10^6 cells/ml; Invitrogen). […]

[2] = test system: adipocytes obtained from normal donors; assay: microarray differential expression in PPARγ agonist-treated adipocytes, normal donor; format: cell-based, human
From the text: as §1, §2, §3, §4, §5

| Molecule | regulation in response to PPARγ agonist (in words) ([1]; adipocytes from obese donors) | regulation in response to PPARγ agonist (in words) ([2]; adipocytes from normal donors) | differential expression, Obese 1 d ([1]; obese-donor adipocytes treated with PPARγ agonist (1 μM rosiglitazone, 0.2 mM IBMX, 100 nM insulin), 1 day, relative to untreated time-matched controls, negative = downregulation) [log base 2] | differential expression, Obese 2 d ([1]; obese-donor adipocytes treated with PPARγ agonist (1 μM rosiglitazone, 0.2 mM IBMX, 100 nM insulin), 2 days, relative to untreated time-matched controls, negative = downregulation) [log base 2] | differential expression, Obese 8 d ([1]; obese-donor adipocytes treated with PPARγ agonist (1 μM rosiglitazone, 0.2 mM IBMX, 100 nM insulin), 8 days, relative to untreated time-matched controls, negative = downregulation) [log base 2] | differential expression, Obese mean ([1]; obese-donor adipocytes treated with PPARγ agonist, averaged over 1, 2, 8 and 15 days) [log base 2] | differential expression, Normal 1 d ([2]; normal-donor adipocytes treated with PPARγ agonist (1 μM rosiglitazone, 0.2 mM IBMX, 100 nM insulin), 1 day, relative to untreated time-matched controls, negative = downregulation) [log base 2] | differential expression, Normal 2 d ([2]; normal-donor adipocytes treated with PPARγ agonist (1 μM rosiglitazone, 0.2 mM IBMX, 100 nM insulin), 2 days, relative to untreated time-matched controls, negative = downregulation) [log base 2] | differential expression, Normal 8 d ([2]; normal-donor adipocytes treated with PPARγ agonist (1 μM rosiglitazone, 0.2 mM IBMX, 100 nM insulin), 8 days, relative to untreated time-matched controls, negative = downregulation) [log base 2] | differential expression, Normal mean ([2]; normal-donor adipocytes treated with PPARγ agonist, averaged over 1, 2, 8 and 15 days) [log base 2] |
| --- | --- | --- | --- | --- | --- | --- | --- | --- | --- | --- |
| SEQ ID NO:29: cDNA, template 235636.1, represented by clone 3075694; integrin binding protein Del-1 | downregulated | unchanged | – | – | – | – | – | – | – | – |
| B1 | – | – | −2.55 | −3.20 | −2.02 | −2.59 | −2.16 | −3.01 | −0.23 | −1.80 |
